Assay results reported in paper PMC5190064.

Target: integrin αvβ3 expressed on primary human brain endothelial cells (ECs) (human (endogenous in primary brain ECs)) (UniProt P06756)
Sequence of UniProt P06756 (P06756 31-1048, chain 1 of 2): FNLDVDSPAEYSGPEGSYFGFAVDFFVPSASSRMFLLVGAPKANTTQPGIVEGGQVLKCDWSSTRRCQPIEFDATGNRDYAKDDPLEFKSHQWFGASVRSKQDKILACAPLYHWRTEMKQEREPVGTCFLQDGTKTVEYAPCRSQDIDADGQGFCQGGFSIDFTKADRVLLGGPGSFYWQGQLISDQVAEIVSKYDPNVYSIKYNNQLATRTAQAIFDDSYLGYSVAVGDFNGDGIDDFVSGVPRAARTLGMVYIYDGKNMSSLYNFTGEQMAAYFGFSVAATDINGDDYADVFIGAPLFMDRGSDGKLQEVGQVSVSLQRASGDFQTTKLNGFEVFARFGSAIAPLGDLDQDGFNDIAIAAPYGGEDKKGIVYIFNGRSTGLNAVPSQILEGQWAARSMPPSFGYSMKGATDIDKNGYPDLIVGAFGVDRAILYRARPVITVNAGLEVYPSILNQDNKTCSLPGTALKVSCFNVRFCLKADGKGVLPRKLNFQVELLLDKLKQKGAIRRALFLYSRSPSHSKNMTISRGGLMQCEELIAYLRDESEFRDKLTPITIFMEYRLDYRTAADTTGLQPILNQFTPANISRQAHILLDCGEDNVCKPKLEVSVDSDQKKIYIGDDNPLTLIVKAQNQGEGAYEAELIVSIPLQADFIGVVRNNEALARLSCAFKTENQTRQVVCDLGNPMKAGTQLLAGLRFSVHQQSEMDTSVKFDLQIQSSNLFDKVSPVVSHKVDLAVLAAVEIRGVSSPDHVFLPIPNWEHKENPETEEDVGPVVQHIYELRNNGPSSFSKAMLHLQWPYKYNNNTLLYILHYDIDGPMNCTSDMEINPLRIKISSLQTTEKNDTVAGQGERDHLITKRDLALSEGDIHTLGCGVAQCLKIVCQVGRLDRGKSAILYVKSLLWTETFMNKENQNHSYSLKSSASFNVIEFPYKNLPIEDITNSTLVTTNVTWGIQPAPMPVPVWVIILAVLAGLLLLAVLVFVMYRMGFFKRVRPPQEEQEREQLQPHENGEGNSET
Sequence of UniProt P06756 (P05106 27-788, chain 2 of 2, further chain): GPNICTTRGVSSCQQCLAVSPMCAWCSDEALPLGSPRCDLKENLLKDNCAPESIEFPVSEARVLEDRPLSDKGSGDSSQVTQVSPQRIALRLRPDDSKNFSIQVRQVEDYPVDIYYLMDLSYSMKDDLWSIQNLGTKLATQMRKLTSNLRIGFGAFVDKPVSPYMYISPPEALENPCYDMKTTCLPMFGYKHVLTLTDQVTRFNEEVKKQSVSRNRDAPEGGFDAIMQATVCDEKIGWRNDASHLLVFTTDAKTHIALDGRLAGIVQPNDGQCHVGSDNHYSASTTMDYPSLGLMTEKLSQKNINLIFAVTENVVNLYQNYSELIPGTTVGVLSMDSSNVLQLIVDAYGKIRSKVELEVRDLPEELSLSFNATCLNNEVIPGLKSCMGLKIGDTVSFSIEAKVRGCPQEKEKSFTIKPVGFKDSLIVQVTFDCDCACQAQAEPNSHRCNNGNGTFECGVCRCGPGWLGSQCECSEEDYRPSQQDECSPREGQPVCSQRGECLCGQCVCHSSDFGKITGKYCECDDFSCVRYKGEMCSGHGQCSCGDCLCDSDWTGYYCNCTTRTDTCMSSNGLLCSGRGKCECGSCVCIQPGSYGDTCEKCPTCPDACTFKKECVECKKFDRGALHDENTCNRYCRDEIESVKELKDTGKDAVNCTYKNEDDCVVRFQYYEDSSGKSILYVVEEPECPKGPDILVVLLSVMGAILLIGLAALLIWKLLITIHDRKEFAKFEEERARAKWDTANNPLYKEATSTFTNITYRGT

cell-cell adhesion of GFP-CSCs (08387) to a confluent EC monolayer after pre-incubation of ECs with a neutralizing antibody to integrin αvβ3; percent reduction of CSC adhesion: 43%
Substance: L1CAM expressed on cancer stem-like cells (CSCs) from glioblastoma (from UniProt P32004 20-1257) (receptor)
